{
  "source": "patent US20090202993",
  "target": "T1, Phi29 DNA polymerase (Bacillus phage phi29) (UniProt P03680)",
  "T1 sequence": "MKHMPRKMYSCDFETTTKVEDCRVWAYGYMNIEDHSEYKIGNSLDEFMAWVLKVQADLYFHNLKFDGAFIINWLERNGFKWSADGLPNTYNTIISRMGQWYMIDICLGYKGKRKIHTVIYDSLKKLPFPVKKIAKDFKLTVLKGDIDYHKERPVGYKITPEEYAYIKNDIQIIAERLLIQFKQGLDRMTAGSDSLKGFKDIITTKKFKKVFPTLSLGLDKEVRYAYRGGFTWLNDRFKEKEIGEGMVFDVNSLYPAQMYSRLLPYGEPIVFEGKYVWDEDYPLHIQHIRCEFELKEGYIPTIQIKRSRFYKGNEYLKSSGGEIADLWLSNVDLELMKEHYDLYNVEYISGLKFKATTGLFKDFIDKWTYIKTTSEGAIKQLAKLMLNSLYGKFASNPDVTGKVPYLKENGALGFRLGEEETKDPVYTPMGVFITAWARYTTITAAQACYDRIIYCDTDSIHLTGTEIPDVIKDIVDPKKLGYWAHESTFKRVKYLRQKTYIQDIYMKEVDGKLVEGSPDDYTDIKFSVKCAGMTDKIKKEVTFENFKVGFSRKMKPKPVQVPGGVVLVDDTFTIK",
  "assay": "cleavage_in_vitro",
  "conditions": "Tango buffer, 37 C, 3 h; Mg2+, Mn2+ or Co2+ required; scale: % increase in acid-soluble product vs no enzyme",
  "data": [
    {"substance": "[3H]poly(A) RNA", "values": [
      {"measurement": "activity", "result": 30}
    ]}
  ]
}
